In PMC4360655:

What was measured:
[1] = molecular target: CaV1.2 channel pore-forming subunit (α1c) tagged at its C-terminus with a half of split Venus (CaV1.2-VN155(I152L) and CaV1.2-VC155) (rabbit) (UniProt P15381)
P15381 = assay: FRET or BRET; living tsA-201 cells expressing CaV1.2-EGFP (donor) and CaV1.2-tagRFP (acceptor), confocal; FRETr = RFPg/GFPg; followed during flash photolysis of caged Ca2+ at −80 mV, during a 500-ms depolarization from −80 to +10 mV (10 mM EGTA in the pipette), and at 0-5000 nM Ca2+ with 1 μM …

Row | Substance | CaV1.2 sparklet density after against before the depolarization that fuses CaV1.2-VN and CaV1.2-VC [1] | time for FRETr to decay to 50% of the peak (T50%), with m5 (P15381)
1 | CaV1.2 channel pore-forming subunit (α1c) tagged at its C-terminus with a half of split Venus (CaV1.2-VN155(I152L) and CaV1.2-VC155) (from UniProt P15381 1-2171) (natural protein) | 10 fold | 
2 | CaV1.2 channel pore-forming subunit (α1c) tagged at its C-terminus with EGFP or tagRFP (CaV1.2-EGFP and CaV1.2-tagRFP) |  | 0.63 ± 0.23 s for FRETr
